In patent US20060148038A1 (INST NAT L DE LA SANTE ET DE LA RECH MEDICALE, published 2006):

Legend:
[1] = target: FX-recombinant (zymogen) (UniProt P00742)
[2] = target: GDX-IVG (zymogen) (UniProt P00742)
[3] = target: GDX-AVG (zymogen) (UniProt P00742)
[4] = target: GDX-SVG (zymogen) (UniProt P00742)
[5] = target: GDX-SFR (zymogen) (UniProt P00742)
[6] = target: GDX-IFG (zymogen) (UniProt P00742)
[7] = target: D-Phe-Phe-Arg-CH3Cl; experiment: inactivation kinetics: residual amidolytic activity on S2765 after incubation with D-FFR-CK, pseudo-first order, 25° C.
[8] = target: T1, antithrombin (purified from human plasma) (human, UniProt P01008 33-464); experiment: inhibition kinetics, continuous S2765 hydrolysis, pseudo-first order, no heparin, 25° C.
T1 construct: mature
Description: The method by continuous recording of the absorbance at 405 nm under pseudo-first order conditions is used to estimate (in the absence of heparin) the kₒₙ of the antithrombin for the activated form of the factor X derivative lacking Gla domain, and those of the activated forms of the GDX-IVG and GDX-IFG derivatives.

[9] = target: T1, antithrombin (purified from human …); experiment: inhibition kinetics, continuous S2765 hydrolysis, second-order (slow tight-binding) conditions, 2 units/ml heparin, 25° C.
Experimental: The kinetics are studied at 25° C., in kinetics buffer containing 1 mg/ml of protease-free bovine albumin and 2 units per ml of heparin; they are followed continuously by virtue of the presence in the reaction medium of 400 μM S2765. The reaction is carried out in a microcuvette in a volume of 600 μl, following the kinetics using a lambda 14 spectrophotometer. The reaction is triggered by adding the minimum amount of activated form of the factor X derivative which is compatible with a reliable signal (1 to 2.5 nM depending on the derivative, such that, in the absence of inhibitor, approximately 10% of the chromogenic substrate is hydrolysed in 60 minutes). For each activated form of factor X derivative, the reaction is carried out in the presence of two concentrations of antithrombin, equal to 2 and 3 times the concentration of the target. By plotting the absorbance at 405 nm as a function of time, a curve is obtained which makes it possible, by non-linear regression using equation 6, to estimate the second-order rate constant for the reaction. The kₒₙ of the antithrombin for the activated form of the factor X derivative is given by equation 5 which takes into consideration the competition introduced by the substrate during the kinetics.

[10] = target: factor Va (KORDIA)
[11] = target: prothrombin (immunopurified)
[12] = target: T1, antithrombin (purified from human …); experiment: SDS-PAGE of covalent complexes, 1 µM derivative, 2 µM antithrombin, 2 units/ml heparin
Experimental: The incubation is sustained for one hour at 25° C., and the reaction mixture is analysed by polyacrylamide gel electrophoresis (10%, crosslinking 29/1), after denaturation and reduction of the sample. After staining with Coomassie blue, the presence of covalent complexes between the (inactivated) form of the factor X derivative and the antithrombin results in a decrease in the intensity of the band corresponding to antithrombin (60 kDa), a decrease in the intensity of the band corresponding to the activated form of the factor X derivative (31 kDa), and the appearance of a new band of higher molecular weight (approximately 100 kDa) corresponding to the covalent complex.

[13] = target: T1, antithrombin (purified from human …); experiment: inhibition kinetics with antithrombin, no heparin
[14] = target: D-Phe-Phe-Arg-CH3Cl; experiment: inactivation kinetics with D-FFR-CK, residual amidolytic activity on S2765
[15] = target: T1, antithrombin (purified from human …); experiment: inhibition kinetics, batchwise residual amidolytic activity on S2765, pseudo-first order, 2 units/ml heparin, 25° C.
Experimental: The method by batchwise sampling of aliquots is used to estimate the kₒₙ of the antithrombin for the activated form of the GDX-AVG derivative (in the presence and the absence of heparin).
The reaction is carried out in kinetics buffer containing 1 mg/ml of protease-free bovine albumin (SIGMA, St Quentin-Fallavier, France) and, when appropriate, 2 units per ml of heparin (KORDIA). In a reaction volume of 10 μl, a sufficient amount of the activated form of the GDX-AVG derivative (0.5 μM in the presence of heparin, 1 μM in its absence) is incubated in the presence of a large excess of antithrombin (5 μM in the presence of heparin, 10 μM in its absence), for a varying amount of time at 25° C. The same experiment is repeated twelve times, varying the incubation time from one experiment to another (from 10 seconds for the first to 5 hours for the last, such that the incubation time for a given experiment is equal to double that of the preceding one). At the end of each incubation, 190 μl of S2765 (200 μM in kinetics buffer) are added, and the residual amidolytic activity is measured by recording the variation in the absorbance at 405 nm as a function of time (i.e. the initial rate of hydrolysis of the S2765) using an MR5000 microplate reader. […]

T1 sequence (P01008 33-464): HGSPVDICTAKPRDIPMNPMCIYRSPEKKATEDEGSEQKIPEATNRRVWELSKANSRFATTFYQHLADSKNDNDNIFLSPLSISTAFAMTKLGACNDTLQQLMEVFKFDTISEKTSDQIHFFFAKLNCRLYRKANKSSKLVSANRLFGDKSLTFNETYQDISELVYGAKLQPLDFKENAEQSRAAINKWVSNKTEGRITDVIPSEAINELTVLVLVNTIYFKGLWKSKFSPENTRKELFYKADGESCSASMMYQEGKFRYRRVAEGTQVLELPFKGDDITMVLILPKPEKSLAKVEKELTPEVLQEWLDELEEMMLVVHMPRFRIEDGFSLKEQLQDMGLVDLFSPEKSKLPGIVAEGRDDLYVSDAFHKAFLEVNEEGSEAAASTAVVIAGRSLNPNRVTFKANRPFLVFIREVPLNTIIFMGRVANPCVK

kon [7] | kon [8] | kon [9] | Molecule | coefficient of acceleration of pNA release by the thrombin generated by the prothrombinase complex (+factor Va) [10] | coefficient of acceleration of pNA release by the thrombin generated by the activated factor X derivative alone (-factor Va) [11] | also measured
 |  |  | thrombin |  |  | cleavage of the factor X derivative by thrombin [1]: the FX-recombinant is not detectably cleavable by thrombin (ND); kcat/Km (M^-1 s^-1) for the activation of the factor X derivative by thrombin [2]: < 1 M⁻¹ s⁻¹; kcat/Km (M^-1 s^-1) for the activation of the factor X derivative by thrombin [3]: 1 10^2 (±9%); kcat/Km (M^-1 s^-1) for the activation of the factor X derivative by thrombin [4]: < 1 M⁻¹ s⁻¹; kcat/Km (M^-1 s^-1) for the activation of the factor X derivative by thrombin [5]: 4 10^3 (±27%); kcat/Km (M^-1 s^-1) for the activation of the factor X derivative by thrombin [6]: < 1 M⁻¹ s⁻¹
2300 M⁻¹ s⁻¹ |  |  | activated form of the factor X from plasma (from UniProt P00742 41-179; P00742 235-488) (enzyme) |  |  | 
2250 M⁻¹ s⁻¹ | 5800 M⁻¹ s⁻¹ | 2e+07 M⁻¹ s⁻¹ | activated form of the GDX-IVG derivative (enzyme, human, domain: two EGF domains;domain: catalytic domain) light: EDQVDPRLIDGKDGDQCETSPCQNQGKCKDGLGEYTCTCLEGFEGKNCELFTRKLCSLDNGDCDQFCHEEQNSVVCSCARGYTLADNGKACIPTGPYPCGKQTLER heavy: IVGGQECKDGECPWQALLINEENEGFCGGTILSEFYILTAAHCLYQAKRFKVRVGDRNTEQEEGGEAVHEVEVVIKHNRFTKETYDFDIAVLRLKTPITFRMNVAPACLPERDWAESTLMTQKTGIVSGFGRTHEKGRQSTRLKMLEVPYVDRNSCKLSSSFIITQNMFCAGYDTKQEDACQGDSGGPHVTRFKDTYFVTGIVSWGEGCARKGKYGIYTKVTAFLKWIDRSMKTRGLPKAKSHAPEVITSSPLKEQKLISEEDLN | 1.1 10^-4 (±1%) | 2.8 10^-5 (±2%) | fold increase of the rate of activation of the prothrombin on addition of factor Va [10]: the addition of factor Va increases the rate of activation of the prothrombin 50-fold and 10-fold respectively
2230 M⁻¹ s⁻¹ | 12000 M⁻¹ s⁻¹ | 1.3e+07 M⁻¹ s⁻¹ | activated form of the GD-FX derivative (enzyme, human, domain: two EGF domains;domain: catalytic domain) light: EDQVDPRLIDGKDGDQCETSPCQNQGKCKDGLGEYTCTCLEGFEGKNCELFTRKLCSLDNGDCDQFCHEEQNSVVCSCARGYTLADNGKACIPTGPYPCGKQTLER heavy: IVGGQECKDGECPWQALLINEENEGFCGGTILSEFYILTAAHCLYQAKRFKVRVGDRNTEQEEGGEAVHEVEVVIKHNRFTKETYDFDIAVLRLKTPITFRMNVAPACLPERDWAESTLMTQKTGIVSGFGRTHEKGRQSTRLKMLEVPYVDRNSCKLSSSFIITQNMFCAGYDTKQEDACQGDSGGPHVTRFKDTYFVTGIVSWGEGCARKGKYGIYTKVTAFLKWIDRSMKTRGLPKAKSHAPEVITSSPLKEQKLISEEDLN | 4.2 10^-4 (±2%) | 8.8 10^-6 (±2%) | fold increase of the rate of activation of the prothrombin on addition of factor Va [10]: the addition of factor Va increases the rate of activation of the prothrombin 50-fold and 10-fold respectively
 |  |  | activated form of the GDX-IFR derivative (enzyme, human, domain: two EGF domains;domain: catalytic domain) light: EDQVDPRLIDGKDGDQCETSPCQNQGKCKDGLGEYTCTCLEGFEGKNCELFTRKLCSLDNGDCDQFCHEEQNSVVCSCARGYTLADNGKACIPTGPYPCGKQTLER heavy: IFRGQECKDGECPWQALLINEENEGFCGGTILSEFYILTAAHCLYQAKRFKVRVGDRNTEQEEGGEAVHEVEVVIKHNRFTKETYDFDIAVLRLKTPITFRMNVAPACLPERDWAESTLMTQKTGIVSGFGRTHEKGRQSTRLKMLEVPYVDRNSCKLSSSFIITQNMFCAGYDTKQEDACQGDSGGPHVTRFKDTYFVTGIVSWGEGCARKGKYGIYTKVTAFLKWIDRSMKTRGLPKAKSHAPEVITSSPLKEQKLISEEDLN | 3.3 10^-6 (±1%) |  | binding result [12]: binds
 |  |  | activated form of the GDX-AVG derivative (enzyme, human, domain: two EGF domains;domain: catalytic domain) light: EDQVDPRLIDGKDGDQCETSPCQNQGKCKDGLGEYTCTCLEGFEGKNCELFTRKLCSLDNGDCDQFCHEEQNSVVCSCARGYTLADNGKACIPTGPYPCGKQTLER heavy: AVGGQECKDGECPWQALLINEENEGFCGGTILSEFYILTAAHCLYQAKRFKVRVGDRNTEQEEGGEAVHEVEVVIKHNRFTKETYDFDIAVLRLKTPITFRMNVAPACLPERDWAESTLMTQKTGIVSGFGRTHEKGRQSTRLKMLEVPYVDRNSCKLSSSFIITQNMFCAGYDTKQEDACQGDSGGPHVTRFKDTYFVTGIVSWGEGCARKGKYGIYTKVTAFLKWIDRSMKTRGLPKAKSHAPEVITSSPLKEQKLISEEDLN | 3.1 10^-5 (±1%) | 9.6 10^-7 (±2%) | fold decrease of kon against its non-mutated homologue (no heparin) [13]: > 1000 times less; fold decrease of kon against the activated form of the factor X from plasma [14]: 1000 times less; kon [15]: 300 M⁻¹ s⁻¹; rate of activation of the prothrombin with factor Va, against the non-mutated homologue (GDX-IVG) [10]: this is now only 13 times less than that obtained for the activated form of its non-mutated homologue (GDX-IVG)
 | 180 M⁻¹ s⁻¹ | 760000 M⁻¹ s⁻¹ | activated form of the GDX-IFG derivative (enzyme, human, domain: two EGF domains;domain: catalytic domain; Position 236 counted from the printed Ile235 = P1′) light: EDQVDPRLIDGKDGDQCETSPCQNQGKCKDGLGEYTCTCLEGFEGKNCELFTRKLCSLDNGDCDQFCHEEQNSVVCSCARGYTLADNGKACIPTGPYPCGKQTLER heavy: IFGGQECKDGECPWQALLINEENEGFCGGTILSEFYILTAAHCLYQAKRFKVRVGDRNTEQEEGGEAVHEVEVVIKHNRFTKETYDFDIAVLRLKTPITFRMNVAPACLPERDWAESTLMTQKTGIVSGFGRTHEKGRQSTRLKMLEVPYVDRNSCKLSSSFIITQNMFCAGYDTKQEDACQGDSGGPHVTRFKDTYFVTGIVSWGEGCARKGKYGIYTKVTAFLKWIDRSMKTRGLPKAKSHAPEVITSSPLKEQKLISEEDLN | 4.9 10^-6 (±1%) | 1.0 10^-7 (±2%) | fold decrease of kon against the non-mutated activated forms (no heparin) [13]: 66 times smaller; fold decrease of kon against the activated form of the factor X from plasma [14]: 20 times lower
 |  |  | activated form of the GDX-SVG derivative (enzyme, human, domain: two EGF domains;domain: catalytic domain) light: EDQVDPRLIDGKDGDQCETSPCQNQGKCKDGLGEYTCTCLEGFEGKNCELFTRKLCSLDNGDCDQFCHEEQNSVVCSCARGYTLADNGKACIPTGPYPCGKQTLER heavy: SVGGQECKDGECPWQALLINEENEGFCGGTILSEFYILTAAHCLYQAKRFKVRVGDRNTEQEEGGEAVHEVEVVIKHNRFTKETYDFDIAVLRLKTPITFRMNVAPACLPERDWAESTLMTQKTGIVSGFGRTHEKGRQSTRLKMLEVPYVDRNSCKLSSSFIITQNMFCAGYDTKQEDACQGDSGGPHVTRFKDTYFVTGIVSWGEGCARKGKYGIYTKVTAFLKWIDRSMKTRGLPKAKSHAPEVITSSPLKEQKLISEEDLN |  |  | binding result [12]: binds
